Target: His-tag GafD lectin (Escherichia coli) (UniProt Q47341)
Assay: concentration dependent nIR fluorescence loading curves, ks against concentration, GafD on Ni-NTA SWNT/chitosan sensor

Chain of His-tag GafD lectin (Escherichia coli) (Q47341 23-200 limits assumed): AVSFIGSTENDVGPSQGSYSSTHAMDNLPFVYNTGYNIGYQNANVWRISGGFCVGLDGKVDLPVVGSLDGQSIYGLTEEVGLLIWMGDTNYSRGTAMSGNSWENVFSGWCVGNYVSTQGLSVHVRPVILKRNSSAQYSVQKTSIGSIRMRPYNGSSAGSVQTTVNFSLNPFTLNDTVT

murine produced anti His-tag antibody (Sigma H1029)
Kd: 4 µM | koff: 0.0082 s⁻¹
